We go through 38 variants from the RNAGym collection of RNA variant scans (doi:10.1073/pnas.2313332121).

B1: TPR 5TU (parent)
chain: GGAUCUUCUCGAUCUAACAAAAAAGACAAAUCUGCCACAAAGCUUGAGAGCAUCUUCGGAUGCAGAGGCGGCAGCCUUCGGUGGCGCGAUAGCGCCAACGUUCUCAACUAUGACACGCAAAACGCGUGCUCCGUUGAAUGGAGUUUAUCAUG

Variants at the floor of the assay were thinned out. Some results are limits rather than exact numbers.

The variants in this data set derive from B1. Briefly: polymerase ribozyme fitness, log enrichment relative to wild type (log ratio); higher = more active; in vitro selection for triplet polymerase activity. The method in brief: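 Fitness compares each genotype's enrichment to that of the wild type on a logarithmic scale, averaging replicates with inverse-variance weights. The logarithm is base 2. Enrichment came from Illumina sequencing of input and output libraries after one triplicate round of in vitro selection, which included frozen incubation at −7 °C, of PCR-built, transcribed mutant libraries of each subunit of a heterodimeric triplet polymerase ribozyme. Only genotypes with ≥10 input reads and ≥1 read per output were kept.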
GGAUCUUCUCGAUCUAACAAAAAAGACAAAUCUGCCACAAAGCUUGAGAGCAUCUGCGGAUGCAGAGGCGGCAGCCUUCGAUGGCGCGAUAGCGCCAACGUUCCCAACUAUGACACGCAAAACGCGUGCUCCGUUGAAUGGAGUCUAUCAUG: the “polymerase ribozyme fitness (log ratio)” value is -1.47.
GGAUCUUCUCGAUCUAACAAAAAGGACAAAUCUGCCACAAAGCAUGAGCGCAUCUUCGGAUGCAGAGGCGGCAGCCUUCGGGGGCGCGAUAGCGCCAACGUUCUCAACUAUGACACGCAAAUCGCGUGCUCCGUUGAAUCGAGUUUAUUAUG: the “polymerase ribozyme fitness (log ratio)” value is -4.02.
Take GGAUCUUCUCGAUCUAACAAAUAAGACAAAUCUGCCACAAAGCUUGAGAGCAUCUACGGAUGCAGAGGCGGCAGCCUUCGGUGGCGCGAUAGCGCCAACGUUCUCUCCUAUGACACGCAAAACGCGUGCUCCGUUGAAUGGGGUUUAUCAUG: the “polymerase ribozyme fitness (log ratio)” value was at most -4.2.
Take GGAUCUUCUCGAUCUAACAAAAAAGACAAAUCUGCCACAAAGCUUGAGAGCAUCUUCGGAUGCAGAGGCGGCAGCCUUCGGUGGCGCCAUAGCGCCAACGUUCUCAACUAUGACACCCAAAACGCGUGCUCCGUUGAUUGGACUUUAUCAUG: the “polymerase ribozyme fitness (log ratio)” value was at most -4.2.
Consider GGAUCUUCUCGAUCAAACAAAAAAGACAUAUCUGCCACAAAGCUUGAGAGCAUCUUCGUAUGCAGAGGCGGCAGCCUUCGGUGGCGCGAUAGCGUCAACGUUCUCAACUAUGACACGCAGAACGCGGGCUCCGUCGAAUGGAAUUUAUCAUG, for which the “polymerase ribozyme fitness (log ratio)” value was at most -4.2.
The same measure for GGAUCUUCUCGAUCUAACAAAAAAGUCAAAUCUGCCACAAAGCUUGAGAGCAUCUACGGAUGCAGAGGCGGCAGCCUUCGGUGGCGCGAUAGCGCCAACGGUCUCAACUAUGACGCGCAAAACGCGUGCUCCGUUGAAUGGAGUUUAUCAUG: -3.42.
Regarding GGAUCGUCUCGAUCUAACAAAAAAGACAAAUCUGCCACACAGCUUGAGAGCAUCUUCGGAUGCAGAGGCGGCAGCCUUCGGUGGCGCGAUAGCGCCAACGUUCUCAACUAUGACACGCAAAACGCGUGCUCCGUUGAAUGGAGUUUAUCAUG, the “polymerase ribozyme fitness (log ratio)” value was 1.13.
GGAUCUUCUCGAUCUAACAAACAAGACAAAUCUGCCACAACGCUUGAGAACAUCUUCGGAUGCAGAGGCGGCAGCCUUCGGUGGCGCGAUAGCGCCAACGUUCUCAACUAUGACGCGCAAAACGCGUGCUCCGUUGAAUGGAGUUUAUCAUG: the “polymerase ribozyme fitness (log ratio)” value was -3.63.
With GGAUCUACUCGAUCUAACAAAAAAGACAAAUCUGCCACAAAGCUUGAGAGCAUCUUCGGAUGCAGAGGCGGCAGCCUUCGGUGGCGCGAUAGCGCCAACGUUCUCAACUCUGACACGCAAAACGCGUGCUCCGUUGAUUGGAGUUUAUCAUG, the “polymerase ribozyme fitness (log ratio)” value is at most -4.2.
With GGAUCUUCUCGAUCUAACAAAAAAGACAAAUCUGCCACAAAGCUUGAGAGCAUCUUCGGAUGCAGAGGCGGCAGCCUUCGGUGGCGCGAUAGCGCCAACGUUCUCAACUAUGACACUCAAAACGCGUGCUCCGUUGAAUGGAGUUUAUCAUG the figure was -0.0156; with GGAUCUUCUCGAUCUAACAAAAAAGACAAAUCUGCCACAAAGCUUGAGAGCAUCUUCGGAUGCAGAGGCGGCAGGCGUCCGUGGCGCGAUAGCGCCUACGUUCUCAACUAUGACACGCAAAACACGUGCUCCGUUGAAUGGAGUUUAUCAUG, at most -4.2.
GGAUCUUUUCGAUCUAAGAAAAAAGACAAAUCUGCCACAAAGCUUGAGACCAUCUUCUGAUGCAGAGGCGGCGGCAUUCGGUGGCGCGAUAGAGCCAACGUUCUCAACUAUGACAAGCACAACGCGUGCUCCGUUGAAUGGAGUUUAUCAUG: the “polymerase ribozyme fitness (log ratio)” value is at most -4.2.
Regarding GGAUCUUCUCGAUCUAACAAAAAAGACAAAUCUGCCACAAAGCUUGAGAGCAUCUGCGGAUGCAGAGGCGGCAGCCUUCGGUGUCGCGAUAGCGCCAACGUUCUCAACUAUGACACGCAAAACGCGUGCUCCGUUGAAUGGAGUUUAUCAUG, the “polymerase ribozyme fitness (log ratio)” value is -2.16.
Take GGAUCUUCUCGAUUUAACAAAAAAGACAAAUCUGCCACAAAGCUUGAGAGCAUCAUCGGAUGCAGAGGCGGCAGCCUUCGGUGGCGCGAUAGCGCCAACGUUCUCAACUAUGACACGCAAAACGCGUGCUCCGUUGAAUGGAGUUUAUCAUG: the “polymerase ribozyme fitness (log ratio)” value is -1.33.
In the case of GGAUCUUCUCGAUGUAACAAAAAAGACAAAUCUGCCACAAAGCUUGAGAGCAUCUUUGGAUGCAGAGGCGGCAGCCUUCGGUGGCGCGAUAGCGCCAACGUUCUCAACUAUGACACGCAAAACGCGUGCUCCGUUGAAUGGAGUUUAUCAUG, the “polymerase ribozyme fitness (log ratio)” value is -2.06.
In the case of GGCUCGUCUCGAUCUAACAAAAAAUACAAAUCUGCCACAAAGCUUGAGAGCAUCUUCGGAUGCAGAGGCGGCAGCCUUCGGUAGCGCGAUAGCGCCAACGUUCUCAACUAUGACACGCAAAACGCGUGCUCCGUUGAAUGGAGUUUAUCAUG, the “polymerase ribozyme fitness (log ratio)” value was -3.47.
Regarding GGAUCUUCUCGAUCUAACAAAAAAGACAAAUCUGCCACAAAGCUUGAGAGCGUCUUCGGAUGCAGAGGCGGCAGCCUUCGGUGGCGCGAUAACGCCAACGUUCUCAACUAUGACACGCAAAACGCGUGCUCCGUUGAAUGGAGUUUAUCAUG, the “polymerase ribozyme fitness (log ratio)” value was -3.13.
With GGAUCUUAUCGAUCUAACAAAAAAGACAAAUCUGCCACAAAGCUUGAGAGCAUCUUCGGAUGCAGAGGCGGCAGCCUUCGGUGGGGCGAUAGCGCCAACGUUUUCAACUGUGACACGCAAAACGCGUGCUCCGGUGAAUGGAGUUUAUGAUG the figure was at most -4.2.
Take GGAUCGUCUCGAUCUAACAAAAUAGACAAAUCUGCCACAAAGCUUGAGAGAAUCGUCGGAUGCAGAGGCGGCAGCCUUCGGUGGCGCGAUAGCGCCAACGUUCUCAACUAUGACUCGCAAAACGCGUGCUCCGUUGAAUGGAGUUUAUCAUG: the “polymerase ribozyme fitness (log ratio)” value was at most -4.2.
GGAUCUUCUCGAUCUAACAAAAAAGACAAAUCUGCCACAAAGCUUGAGAGCAUCUUCGGAUGCAGAGGCGGCAGCCUUCGGUGGCGCGAUAGCGCCAACGUUCUCAACUAUGACACGCAAAACGCGUGCUCCGUUCAAUGGAGUUCAUCAUG: the “polymerase ribozyme fitness (log ratio)” value is -2.93.
With GGAUCUUCUCGAUCUAACAACAAAGACAAAUCUGCCACAAAGCUUGAGAGCAUCUUCGGAUGCAGAGGCGGCAGCCUUCGGUGGCGCGAUAGUGCCUACGUUCUCAACUAUGACAUGCAAAAUGCGUGCUCCGUUGAAUGGAGUUUAUCAUG, the “polymerase ribozyme fitness (log ratio)” value is -0.404.
With GGAUCUUCUCGAUCUCACAAAAAAGACAAAUCUGCGACAAAGCUUGAGAGCAUCUUCGGAUGCAGAGGCGGCAGCCUUCGGUGGCGCGAUAACGCCAACGUUCUCAAAUAUGGCACGCAAAACGCGUGCUCCGUUGAAAGGAGUUUAUCAUG the figure was at most -4.2; with GGAUCUUCUCGAUCUAACAAAAAAGACAAAUCUGCCACAAAGCUUGAGAGCACCUUCGGAUGCAGAGGCGGAAGCCUUCGGUGGCGCGAUAGCGCCAACGUUCUCAACUAUGACACGCAAAACGCGUGCUCCGUUGAACGGAGUUUAUCGUG, at most -4.2.
For GGAUCUUCUCGAUCUACCAAAAAAGACAAAUCUGCCACAAAGCUUGAGAGCAACUUCGGAUGCAGAGGCGCCAGCCUUCGGUAGCGCGAUUGAGCCAACGUUCUCAAUUAUGACACGCAAAACGCGGGCUCCGUUGAAUGGAGUUUAUCAUG, the “polymerase ribozyme fitness (log ratio)” value was at most -4.2.
Consider GGAUCUUCUCGAUCUAACAAAAAAGACAAAUCUGCCACAAAGCUUGUGAGCGUCUUCGGAUGCAGAGGCGGCAGCCUUCGGUGGCGCGAUAGCGCCAACGUUCUCAACUAUGACACGCCAAACGCGUGCUCCGUUGAAUGGAGUUUAUCAUG, for which the “polymerase ribozyme fitness (log ratio)” value is -1.05.
The same measure for GGAUCUUCUCGAUCUAACACAAAAGACAAAUCUGCAACAAAGCUUGAGAGUAUCGUCGGAUGCAGAGGGGGCUGCCUUCGAUGGCGCGAUAGCGCUAACGUUCUCAACUAUGACACGCAAAACGCGUGCUCCGUUGAAUGUAGUUUAUCAUG: at most -4.2; for GGUUCUUCUCGGUCUAACAAAAAAGACUAAUCUGCCACAAAGCUUGAGAGCAUCUUCGGAUGCAGAGGCGGCAGCCUUCGGUGGCGUGAUAGCGCCAACGUUCUCAACUAUGACACGCAAAACGCGUGCUCCGUUGAAUGGAGUUUAUCAUG: at most -4.2; for GGAUCUUCUCGAUCUAACAAAAAAGACAAAUCUGCCACAACGCUUGAGAGCAUCAUCGGAUGCAGAGGCGGCAGCCUUCGGUGGCGCGAUAGAGCCAACGUUCUCAACUAUGACACGCAAAACGCGUGCUCCGUUGAAUGGAGUUUAUCAUG: -3.32.
As to GGAUCUUCUCGAUCUAACAAAAAAGACAAAUCUGCCACAAAGCUUGAGAGCAUCUUCGAAUGCAGAGGCGGCAGCCUUCGGUGGCGCGAUAGCACCAACGUUCUCAACUAUGACACGCAAAACGCGUGCUCCGUUGAAUGGAGUUUAUCAUG, the “polymerase ribozyme fitness (log ratio)” value was -0.522.
Consider GGAUCUUCUCGAUCUAACAAAAAAGACAAAUCUGCCACAAAGCUUGAGAGCAUCUUCGGAUGCAGAGGCGGCACCCUUCGGUAGCGCGAUAGCGUCAACGUUCUCAACUAUGACACGCAAAACGCGUGCUCCGUUAAAUGGAGUUUAUCAUG, for which the “polymerase ribozyme fitness (log ratio)” value is at most -4.2.
Consider GGAUCUUCUCGAUCUAACAAAAAAGACAAAUCUGCCACAAAGCUUGAGAGCAUCUUCGGAUGCAGAGGCGGCAGCCUUCGGUAGCGCGAUAGCGACAACGUUCUCAACUAUGUCACGCAAAACGCGUGCUCCGUUGAAUGGAGUUUAUCAUG, for which the “polymerase ribozyme fitness (log ratio)” value was -3.12.
As to GGAUCUUCUCGAUCUAACAAAAAAGACAAAUCUGCCACAAAGCUUGAGAGAAUCUUCGGAUGCAGAGGCGGCAGCCUUCGGUGGCGCGAUAGCGCCAACGUUCUCAACUAUGACACGUAAAACGCGUGCUCCGUUGAAUGGAGUUUAUCAUA, the “polymerase ribozyme fitness (log ratio)” value was -3.06.
In the case of GGAUCUUCUCGAUCUAACAAAAAAGACAAAUCUGCCACAAAGCUUGAGAGCAUCUUCGGAUGCAGAGGCGGCAGCUUUCGGUGGCGCGAUAGCGCCAACGUUCUCAACUAUGACACGCAAAUCGCGUGCUCCGUUGAAUGGAGUUUAUCAUG, the “polymerase ribozyme fitness (log ratio)” value was determined as 0.0697.
As to GGAUCGUCUGGAUCUAACAAAAAAGACAAAUCUGCCACAAAGCUUGAGAGCAUCUUCGGAUGCAGAGGCGGCAGCCUUCGGUGGCGCGAUAGCGCCAACGUUCUCAACUAUGACACGCAAAACGCGUGCUCCGUUGAAUGGAGUUUAUCAUG, the “polymerase ribozyme fitness (log ratio)” value was -3.01.
With GGAUCCUUUCGAUCUAUCAAAAAAGACAAAUCUGCCACGAAGCUUGAGAGCAUCUUCGGAUGCAGAGGCGGCAGCCUUCGGUAGCGCGAUAGCGCCAACGAUCUCAACUAUGACACGCAAAACGCGUGCUCCGUUGAAUGGAGUUUAUCAUG, the “polymerase ribozyme fitness (log ratio)” value is at most -4.2.
Take GGAUCUUCUCGAUCUAACUAAAAAGACAAAUCUGCCACAAAUCUUGAGAGCAUCUUCGGAUGCAGAGGCGGCAGCCUUCGGUGGCGCGAUAGCGCCAACGUUCUCAACUAUGGCACGCAAUACCCGUGCUCCGUUGAAUGGAGUUUAACAUG: the “polymerase ribozyme fitness (log ratio)” value is at most -4.2.
For GGAUCUUCUCGAUCUAACAAAAAAGACAAAUCUGCCACAAAGCUUGAGAGCAACUUCGGAUGCAGAGGCGGCAGCCUUCGGUGGGGCGAUAGCGCCAACGUUCUCAACUAUGACACGCAAAACGCGUGCUCCCUUGAAUGGAGUUUAUCCUG, the “polymerase ribozyme fitness (log ratio)” value is at most -4.2.
With GGAUCUUCUCGAUCUAACAGAAAAGACAAAUCAGCCACAAAGCUUGAGAGCAUCGUCGGAUGCAGAGGCGGCAGCCUUCGGUGGCGAGAUAGCGCCAACGUUCUCAACUAUGACACGCAAAACGCGUGCUCCGUUGAAUCGAGUUUAUCAUG the figure was at most -4.2.
